Data taken from ChEMBL document CHEMBL1140886, “Development of an optimized activatable MMP-14 targeted SPECT imaging probe” (Bioorg Med Chem, 2009).

Substrate: CC[C@H](C)[C@H](NC(=O)[C@H](CCCNC(=N)N)NC(=O)CNC(=O)[C@@H](N)CO)C(=O)NCC(=O)N[C@@H](Cc1ccccc1)C(=O)N[C@@H](CC(C)C)C(=O)N[C@@H](CCCNC(=N)N)C(=O)N[C@H](C(=O)N[C@@H](C)C(=O)O)[C@@H](C)O
Assay: Ratio of kcat/km for MMP9 assessed as drug cleavage

B1: Matrix metalloproteinase-9 (Homo sapiens), P14780 (protein)
chain: MSLWQPLVLVLLVLGCCFAAPRQRQSTLVLFPGDLRTNLTDRQLAEEYLYRYGYTRVAEMRGESKSLGPALLLLQKQLSLPETGELDSATLKAMRTPRCGVPDLGRFQTFEGDLKWHHHNITYWIQNYSEDLPRAVIDDAFARAFALWSAVTPLTFTRVYSRDADIVIQFGVAEHGDGYPFDGKDGLLAHAFPPGPGIQGDAHFDDDELWSLGKGVVVPTRFGNADGAACHFPFIFEGRSYSACTTDGRSDGLPWCSTTANYDTDDRFGFCPSERLYTQDGNADGKPCQFPFIFQGQSYSACTTDGRSDGYRWCATTANYDRDKLFGFCPTRADSTVMGGNSAGELCVFPFTFLGKEYSTCTSEGRGDGRLWCATTSNFDSDKKWGFCPDQGYSLFLVAAHEFGHALGLDHSSVPEALMYPMYRFTEGPPLHKDDVNGIRHLYGPRPEPEPRPPTTTTPQPTAPPTVCPTGPPTVHPSERPTAGPTGPPSAGPTGPPTAGPSTATTVPLSPVDDACNVNIFDAIAEIGNQLYLFKDGKYWRFSEGRGSRPQGPFLIADKWPALPRKLDSVFEERLSKKLFFFSGRQVWVYTGASVLGPRRLDKLGLGADVAQVTGALRSGRGKMLLFSGRRLWRFDVKAQMVDPRSASEVDRMFPGVPLDTHDVFQYREKAYFCQDRFYWRVSSRSELNQVDQVGYVTYDILQCPED
kcat/Km: 20000 M⁻¹ s⁻¹
